IntAct's records for PubMed 23260655

B1: Chromobox protein homolog 8 (Homo sapiens), Q9HC52 (parent)
chain: MELSAVGERVFAAEALLKRRIRKGRMEYLVKWKGWSQKYSTWEPEENILDARLLAAFEEREREMELYGPKKRGPKPKTFLLKAQAKAKAKTYEFRSDSARGIRIPYPGRSPQDLASTSRAREGLRNMGLSPPASSTSTSSTCRAEAPRDRDRDRDRDRERDRERERERERERERERERERGTSRVDDKPSSPGDSSKKRGPKPRKELPDPSQRPLGEPSAGLGEYLKGRKLDDTPSGAGKFPAGHSVIQLARRQDSDLVQCGVTSPSSAEATGKLAVDTFPARVIKHRAAFLEAKGQGALDPNGTRVRHGSGPPSSGGGLYRDMGAQGGRPSLIARIPVARILGDPEEESWSPSLTNLEKVVVTDVTSNFLTVTIKESNTDQGFFKEKR

Variants of: B1
Details: with af9_mouse Mllt3, A2AM29
Chain of af9_mouse Mllt3, A2AM29 (A2AM29 whole entry): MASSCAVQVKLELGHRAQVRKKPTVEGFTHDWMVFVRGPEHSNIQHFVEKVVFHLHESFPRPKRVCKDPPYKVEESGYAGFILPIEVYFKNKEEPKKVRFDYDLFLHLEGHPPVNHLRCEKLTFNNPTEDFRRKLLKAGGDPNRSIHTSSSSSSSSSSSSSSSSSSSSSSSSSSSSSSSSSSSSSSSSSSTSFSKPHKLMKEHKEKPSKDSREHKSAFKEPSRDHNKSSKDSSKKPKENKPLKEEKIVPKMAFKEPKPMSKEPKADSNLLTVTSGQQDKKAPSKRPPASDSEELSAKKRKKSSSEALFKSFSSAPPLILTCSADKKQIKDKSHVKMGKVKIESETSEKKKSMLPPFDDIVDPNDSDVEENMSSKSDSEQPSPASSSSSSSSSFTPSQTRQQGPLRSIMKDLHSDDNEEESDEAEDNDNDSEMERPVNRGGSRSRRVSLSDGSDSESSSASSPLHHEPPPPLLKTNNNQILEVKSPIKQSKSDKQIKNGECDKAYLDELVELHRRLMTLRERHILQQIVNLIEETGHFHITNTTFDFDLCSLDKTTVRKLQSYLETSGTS

| effect of a mutation on the interaction | Variant |
| --- | --- |
| increasing interaction strength | MELSAVGERVFAAEALLKRRIRKGRMEYLVKWKGWSQKYSTWEPEENILDARLLAAFEEREREMELYGPKKRGPKPKTFLLKAQAKAKAKTYEFRSDSARGIRIPYPGRSPQDLASTSRAREGLRNMGLSPPASSTSTSSTCRAEAPRDRDRDRDRDRERDRERERERERERERERERERGTSRVDDKPSSPGDSSKKRGPKPRKELPDPSQRPLGEPSAGLGEYLKGRKLDDTPSGAGKFPAGHSVIQLARRQDSDLVQCGVTSPSSAEATGKLAVDTFPARVIKHRAAFLEAKGQGALDPNGTRVRHGSGPPSSGGGLYRDMGAQGGRPSLIVRIPVARILGDPEEESWSPSLTNLEKVVVTDVTSNFLTVTIKESNTDQGFFKEKR [A335V] |
